Numbering of substitutions follows the chain as printed. Names may count otherwise.
B1: 04H1654-KT461/04L1612-lam1//04H1656-HT443/04L1612-lam1 (antibody, human IgG1, lambda)
heavy 1: QVQLVESGGGVVQPGGSLRLSCAASGFTFSSKTMNWVRQAPGKGLEWVSSISTQSHYIYYARSVRGRFTISRDNAKNSLYLQMNSLRAEDTAVYYCARYGKREDMLWVFDYWGQGTLVTVSSASTKGPSVFPLAPSSKSTSGGTAALGCLVKDYFPEPVTVSWNSGALTSGVHTFPAVLQSSGLYSLSSVVTVPSSSLGTQTYICNVNHKPSNTKVDKRVEPKSCDKTHTCPPCPAPEFQWGPMVFLFPPKPKDVLMISRTPEVTCVVVDVSDEEPEVKFNWYVDGVEVHNAKTKPREEQYNATYRVVSVLPVLHQDWLNGKEYKCKVSNDALPAPEEKTISKAKGQPREPQVYTLPPSRKEMTKNQVSLTCLVKGFYPSDIAVEWESNGQPENNYKTTPPVLDSDGSFFLYSKLTVDKSRWQQGNVFSCSVMHEALHNHYTQKSLSLSP
heavy 2: B1 heavy 1 with R62E, K101A, F239L, Q240L, W241A, M244S, D273H, K339E, K361E, K444E
light: QSALTQPPSASGSPGQSVTISCEGPSTGVGDYTYVHWYQQHPGKAPKLMIYFTSKKPSGVPDRFSGSKSGNTASLTVSGLQAEDEADYYCQTYAAPLGPMFGGGTKLTVLGQPKAAPSVTLFPPSSEELQANKATLVCLISDFYPGAVTVAWKADSSPVKAGVETTTPSKQSNNKYAASSYLSLTPEQWKSHRSYSCQVTHEGSTVEKTVAPTECS
notes: Heterodimerized IgG1 (IGHG1*03) Fc variant
B2: 04H1654-KT462/04L1612-lam1//04H1656-HT445/04L1612-lam1 (antibody, human IgG1, lambda)
heavy 1: B1 heavy 1 with E337I
heavy 2: QVQLVESGGGVVQPGGSLRLSCAASGFTFSSKTMNWVRQAPGKGLEWVSSISTQSHYIYYAESVRGRFTISRDNAKNSLYLQMNSLRAEDTAVYYCARYGAREDMLWVFDYWGQGTLVTVSSASTKGPSVFPLAPSSKSTSGGTAALGCLVKDYFPEPVTVSWNSGALTSGVHTFPAVLQSSGLYSLSSVVTVPSSSLGTQTYICNVNHKPSNTKVDKRVEPKSCDKTHTCPPCPAPELLAGPSVFLFPPKPKDVLMISRTPEVTCVVVDVSHEEPEVKFNWYVDGVEVHNAKTKPREEQYNATYRVVSVLPVLHQDWLNGKEYKCKVSNDALPKPDEETISKAKGQPREPQVYTLPPSREEMTKNQVSLTCLVKGFYPSDIAVEWESNGQPENNYKTTPPVLDSDGSFFLYSKLTVDKSRWQQGNVFSCSVMHEALHNHYTQESLSLSP
light: B1 light
notes: as for B1
B3: 04H1654-KT473/04L1610-lam1//04H1656-HT482/04L1610-lam1 (antibody, IgG1)
heavy 1: B1 heavy 1 with E337I, N439A, Y441T, Q443R, S445E
heavy 2: B2 heavy 2 with N439A, Y441T, Q443R, S445E
light: B1 light with T33N, Y34W
notes: Heterodimerized IgG1 Fc variant with N434A/Y436T/Q438R/S440E; also called SW1610-ART6+ACT1
B4: 04H1654-KT473/04L1612-lam1//04H1656-HT482/04L1612-lam1 (antibody, IgG1)
heavy 1: B1 heavy 1 with E337I, N439A, Y441T, Q443R, S445E
heavy 2: B2 heavy 2 with N439A, Y441T, Q443R, S445E
light: B1 light
notes: Heterodimerized IgG1 Fc variant with N434A/Y436T/Q438R/S440E

target: T1, human FcRn (human, UniProt P55899 24-290; P61769 21-119); assay: KD of 04H1637-G1m/04L1610-lam1 divided by KD of this antibody; SPR pH 6.0
T1 construct: Prepared by the method of WO 2010/107110; also called hFcRn
Method: The interaction between the generated antibodies and human FcRn was analyzed by the following method using Biacore T200. 50 mM Na-Phosphate, 150 mM NaCl, 0.05% Tween20 (pH 6.0) was used as the running buffer, and the assay was performed at 25° C. For the sensor chip, Series S SA (GE Healthcare) chips onto which CaptureSelect Human Fab-lambda Kinetics Biotin Conjugate (Thermo Fisher Scientific) was immobilized were used. The antibodies of interest were captured onto these chips and FcRn diluted in the running buffer was allowed to interact with them. Chips were regenerated with 10 mM Glycine-HCl (pH 1.5) and 25 mM NaOH, and assay was performed by repeatedly capturing antibodies. The dissociation constant for FcRn of each antibody was calculated using the steady state model, using Biacore T200 Evaluation Software 2.0.
“Relative value to KD between G1m and hFcRn” and “Relative value to KD between G1m and hFcγRs” are values obtained by dividing the KD value of 04H1637-G1m/04L1610-lam1 for hFcRn and for each FcγR by the KD value of each variant, respectively. “Relative binding amount” indicates the value obtained by dividing the binding amount of each variant to FcγRIIb by the binding amount of 04H1637-G1m/04L1610-lam1. […] It was shown that all of the generated heterodimerized antibodies had enhanced binding to FcγRIIa and FcγRIIIa as compared with 04H1637-G1m/04L1610-lam1 which has the constant region of native human IgG1. Furthermore, 04H1637-Kn462/04L1610-lam1//04H1637-H1441/04L1610-lam1, 04H1637-Kn462/04L1610-lam1//04H1637-H1445/04L1610-lam1, and 04H1637-Kn461/04L1610-lam1//04H1637-H1443/04L1610-lam1 were all shown to have enhanced binding to FcγRIIa compared to 04H1637-Kn125/04L1610-lam1//04H1637-H1076/04L1610-lam 1 which has the Fc region variant reported in WO 2013/002362.

T1 sequence (P55899 24-290 limits assumed, chain 1 of 2): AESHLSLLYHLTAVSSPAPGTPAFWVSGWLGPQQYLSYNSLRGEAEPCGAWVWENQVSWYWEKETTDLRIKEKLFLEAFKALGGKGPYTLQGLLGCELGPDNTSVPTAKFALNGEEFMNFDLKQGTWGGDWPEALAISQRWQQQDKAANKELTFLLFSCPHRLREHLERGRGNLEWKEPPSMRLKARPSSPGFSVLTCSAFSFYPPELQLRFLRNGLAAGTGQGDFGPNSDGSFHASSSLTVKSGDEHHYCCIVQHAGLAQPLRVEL
T1 sequence (P61769 21-119 limits assumed, chain 2 of 2): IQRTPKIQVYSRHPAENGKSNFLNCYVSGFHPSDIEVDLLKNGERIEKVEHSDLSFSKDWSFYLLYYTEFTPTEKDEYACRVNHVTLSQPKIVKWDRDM

| Binder | Relative value to KD between G1m and hFcRn [ratio] |
| --- | --- |
| B1 | 0.8 |
| B2 | 0.8 |
| B3 | 2.3 |
| B4 | 2.1 |

target: T2, human FcγRIIb extracellular domain, His-tagged (human, UniProt P31994 43-217); assay: binding amount of this antibody divided by that of 04H1637-G1m/04L1610-lam1; SPR pH 7.4
T2 construct: extracellular domain; also called hFcγR IIb
T2 sequence (looked up): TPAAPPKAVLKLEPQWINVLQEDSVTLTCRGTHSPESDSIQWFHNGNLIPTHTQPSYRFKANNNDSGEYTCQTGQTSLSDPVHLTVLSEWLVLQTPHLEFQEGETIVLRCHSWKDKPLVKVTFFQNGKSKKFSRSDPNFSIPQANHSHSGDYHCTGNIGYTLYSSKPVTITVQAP
Method: (§1) The interaction between the generated antibodies and human FcγRs was analyzed by the following method using Biacore T200. 50 mM Na-Phosphate, 150 mM NaCl, 0.05% Tween20 (pH 7.4) was used as the running buffer, and the assay was performed at 25° C. For the sensor chips, Series S SA (GE Healthcare) chips onto which CaptureSelect Human Fab-lambda Kinetics Biotin Conjugate (Thermo Fisher Scientific) was immobilized were used. The antibodies of interest were captured onto these chips and each FcγR diluted in the running buffer was allowed to interact with them. Chips were regenerated with 10 mM Glycine-HCl (pH 1.5) and 25 mM NaOH, and assay was performed by repeatedly capturing antibodies. The dissociation constants KD (mol/L) for FcγRs of each antibody were calculated using Biacore T200 Evaluation Software 2.0, using the 1:1 Langmuir binding model for FcγRIa and FcγRIIIa and the steady state affinity model for FcγRIIa. For FcγRIIb, the binding amount of FcγRIIb per unit amount of antibody was calculated by correcting the binding amount of FcγRIIb obtained from the sensorgram obtained by the measurement with the amount of antibody captured onto the chip surface.
(§2) “Relative value to KD between G1m and hFcRn” and “Relative value to KD between G1m and hFcγRs” are values obtained by dividing the KD value of 04H1637-G1m/04L1610-lam1 for hFcRn and for each FcγR by the KD value of each variant, respectively. “Relative binding amount” indicates the value obtained by dividing the binding amount of each variant to FcγRIIb by the binding amount of 04H1637-G1m/04L1610-lam1. […] It was shown that all of the generated heterodimerized antibodies had enhanced binding to FcγRIIa and FcγRIIIa as compared with 04H1637-G1m/04L1610-lam1 which has the constant region of native human IgG1.

| Binder | Relative binding amount [ratio] |
| --- | --- |
| B1 | 3.1 |
| B2 | 3.4 |
| B3 | 3.2 |
| B4 | 3.2 |

target: T3, human FcγRIIa, type R, extracellular domain, His-tagged (human, UniProt P12318 34-217); assay: KD of 04H1637-G1m/04L1610-lam1 divided by KD of this antibody; SPR pH 7.4
T3 construct: extracellular domain; also called hFcγR IIa R
T3 sequence (looked up): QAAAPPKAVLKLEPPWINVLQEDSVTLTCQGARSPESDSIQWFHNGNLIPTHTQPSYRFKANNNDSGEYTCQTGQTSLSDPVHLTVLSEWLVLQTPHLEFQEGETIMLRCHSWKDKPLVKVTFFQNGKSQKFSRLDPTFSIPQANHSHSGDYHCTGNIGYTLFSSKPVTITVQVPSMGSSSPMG
Method: as §1, §2

| Binder | Relative value to KD between G1m and hFcγRs [ratio] |
| --- | --- |
| B1 | 8.2 |
| B2 | 14.2 |
| B3 | 13.9 |
| B4 | 13.8 |

target: T4, human FcγRIIIa, allotype V158, extracellular domain, His-tagged (human, UniProt P08637 17-208); assay: as above
T4 construct: extracellular domain; also called hFcγR IIIa V
Method: as §1, §2

T4 sequence (P08637 17-208 F176V): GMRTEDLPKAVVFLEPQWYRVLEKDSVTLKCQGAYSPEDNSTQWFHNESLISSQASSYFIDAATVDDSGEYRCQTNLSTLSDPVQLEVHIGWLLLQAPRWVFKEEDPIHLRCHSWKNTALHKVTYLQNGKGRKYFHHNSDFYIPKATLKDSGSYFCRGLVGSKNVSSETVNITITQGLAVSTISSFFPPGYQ

| Binder | Relative value to KD between G1m and hFcγRs [ratio] |
| --- | --- |
| B1 | 159 |
| B2 | 106 |
| B3 | 115 |
| B4 | 110 |

target: T5, human FcγRIIIa, allotype F158, extracellular domain, His-tagged (human, UniProt P08637 17-208); assay: as above
T5 construct: extracellular domain; also called hFcγR IIIa F
Method: as §1, §2

T5 sequence (P08637 17-208): as the sequence (P08637 17-208 F176V) above, with V160F counted along it

| Binder | Relative value to KD between G1m and hFcγRs [ratio] |
| --- | --- |
| B1 | 537 |
| B2 | 408 |
| B3 | 363 |
| B4 | 355 |

target: T6, human FcγRIIa, type H, extracellular domain, His-tagged (human, UniProt P12318 34-217); assay: as above
T6 construct: extracellular domain; also called hFcγR IIa H
T6 sequence (looked up): T3 sequence (looked up) with R134H
Method: as §1, §2

| Binder | Relative value to KD between G1m and hFcγRs [ratio] |
| --- | --- |
| B1 | 7.1 |
| B2 | 16.1 |
| B3 | 18 |
| B4 | 16.2 |

target: T7, human FcγRIa extracellular domain, His-tagged (human, UniProt P12314 16-292); assay: as above
T7 construct: also called hFcγR Ia
Method: as §1, §2

T7 sequence (P12314 16-292): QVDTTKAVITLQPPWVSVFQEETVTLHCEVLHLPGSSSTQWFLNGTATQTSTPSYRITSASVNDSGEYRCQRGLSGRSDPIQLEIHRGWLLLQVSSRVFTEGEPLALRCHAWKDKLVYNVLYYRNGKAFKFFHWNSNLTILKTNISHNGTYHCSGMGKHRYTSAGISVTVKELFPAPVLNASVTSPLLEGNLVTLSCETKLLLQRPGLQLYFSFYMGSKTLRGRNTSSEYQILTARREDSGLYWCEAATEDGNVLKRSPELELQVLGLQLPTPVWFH

| Binder | Relative value to KD between G1m and hFcγRs [ratio] |
| --- | --- |
| B1 | 1.3 |
| B2 | 1.2 |
| B3 | 1.1 |
| B4 | 1 |

target: T2, human FcγRIIb extracellular domain, …; assay: SPR Biacore T200, 25C, pH 7.4; FcγRIIb at 1000 nM, corrected by captured antibody
Method: as §1

| Binder | Binding amount |
| --- | --- |
| B1 | 0.025 RU per RU of captured antibody |
| B2 | 0.028 RU per RU of captured antibody |
| B3 | 0.026 RU per RU of captured antibody |
| B4 | 0.026 RU per RU of captured antibody |

From patent US20260092115A1 (Chugai, published 2026)
